Assay results as given in patent US20240043505A1 (UNIVERSITY OF PITTSBURGH OF THE COMMONWEALTH SYSTEM OF …, published 2024).
Several values for one entry are separate records, joined by “and”; a condition that tells them apart may be missing. Identical values can stand only once.

Columns and labels:
[1] = molecular target: SARS-CoV-2 spike glycoprotein on pseudotyped SARS-CoV-2 (Wuhan-Hu-1 strain) particles (SARS-CoV-2, UniProt P0DTC2 14-1273); assay: cell-based or functional assay
[2] = molecular target: SARS-CoV-2 spike glycoprotein on authentic SARS-CoV-2 (Munich strain, SARS-CoV-2/München-1.1/2020/929) (SARS-CoV-2, UniProt P0DTC2 14-1273); assay: cell-based or functional assay
SARS-CoV RBD = SARS-CoV RBD (SARS-CoV, UniProt P59594 306-527)
[3] = molecular target: T1, SARS-CoV-2 Munich strain spike glycoprotein on authentic virus (SARS-CoV-2); assay: cell-based or functional assay
[4] = molecular target: T2, SARS-CoV-2 (Wuhan-Hu-1 strain) spike glycoprotein on pseudotyped virus particles (SARS-CoV-2, UniProt P0DTC2 14-1273); assay: cell-based or functional assay
[5] = molecular target: T2, SARS-CoV-2 (Wuhan-Hu-1 strain) spike …; assay: cell-based or functional assay; remark: listed apart in the source
[6] = molecular target: T3, SARS-CoV-2 spike receptor-binding domain (RBD) (SARS-CoV-2, UniProt P0DTC2 319-541); assay: indirect ELISA, RBD coated on plate, 4PL fit
[7] = molecular target: SARS-CoV-2 spike glycoprotein on authentic virus (Munich strain) (SARS-CoV-2 (Munich strain), UniProt P0DTC2 14-1273); assay: cell-based or functional assay
[8] = molecular target: SARS-CoV-2 spike glycoprotein (Wuhan-Hu-1 strain) on pseudotyped virus particles (SARS-CoV-2 (Wuhan-Hu-1 strain), UniProt P0DTC2 14-1273); assay: cell-based or functional assay
[9] = molecular target: SARS-CoV-2 spike receptor-binding domain (RBD), recombinant (SARS-CoV-2, UniProt P0DTC2 319-541); assay: SPR (Biacore 3000), RBD immobilized on the chip, Nb as analyte, 1:1 Langmuir fit
[10] = molecular target: T3, SARS-CoV-2 spike receptor-binding …; assay: SPR (Biacore 3000), RBD immobilised, Nb as analyte, 1:1 Langmuir fit
[11] = molecular target: T1, SARS-CoV-2 Munich strain spike …; assay: cell-based or functional assay; remark: listed apart in the source

B1: Nb105 (VHH)
VHH: HVQLVESGGGLVQAGGSLRLSCAVSGRTFSTYGMAWFRQAPGKERDFVATITRSGETTLYADSVKGRFTISRDNAKNTVYLQMNSLKIEDTAVYYCAVRRDSSWGYSRDLFEYDYWGQGTQVTVSS
- Pseudo-neutralization IC50 (Luciferase) [1]: 5 nM
- Authentic virus PRNT IC50 [2]: 5.1 nM

B2: Nb105 (VHH)
VHH: B1 VHH
- IC50 (SARS-CoV RBD): 3.76 nM
- Authentic virus PRNT IC50 [3]: 5.07 nM
- Pseudo-neut IC50 Luciferase [4]: 5.11 nM
- neutralization of SARS-CoV-2 (assay not stated) [5]: < 150 ng/mL

B3: Nb9 (VHH)
VHH: HVQLVESGGGLVQTGGSLRLSCAFSGYTFSTFPTAWFRQAPGKEREFVAGIRWNGGSRDYTEYADFVKGRFTISRDNAKNMIYLQMISLKPEDTALYYCAASHGVVDGTSVNGYRYWGQGTQVTVSS
- ELISA affinity [6]: 0.89 nM
- Authentic virus PRNT IC50 [7]: 1.72 nM
- Pseudo-neutralization IC50 (Luciferase) [8]: 1.5 nM

B4: Nb89 (VHH)
VHH: HVQLVESGGGLVQAGGSLRLSCAASGGTFTTFRMAWFRQTPGKEREFVAASSWGFVNYADPVKGRFTISRDNAKNTVYLEMSSLKTEDTAVYYCAARNPGTGQYDYWGQGTQVTVSS
- Pseudo-neutralization (GFP) [1]: < 0.5 nM
- Pseudo-neutralization IC50 (Luciferase) [1]: 0.129 nM
- Authentic virus PRNT IC50 [2]: 0.154 nM
- Kd [9]: 0.108 nM
- koff [9]: 0.000624 s⁻¹

B5: Nb89 (VHH)
VHH: B4 VHH
- ELISA affinity [6]: 1.09 nM
- kon [10]: 5.78e+06 M⁻¹ s⁻¹

B6: Nb95 (VHH)
VHH: QVQLVESGGGLVQAGGSLRLSCAASGRTFSSYSMGWFRQAQGKEREFVATINGNGRDTYYTNSVKGRFTISRDDATNTVYLQMNSLKPEDTAIYYCAADKDVYYGYTSFPNEYEYWGQGTQVTVSS
- Pseudo-neutralization IC50 (Luciferase) [1]: 10 nM
- Authentic virus PRNT IC50 [2]: 5.11 nM

B7: Nb95 (VHH)
VHH: B6 VHH
- IC50 (SARS-CoV RBD): 31.6 nM
- Authentic virus PRNT IC50 [3]: 5.11 nM
- Pseudo-neut IC50 Luciferase [4]: 10 nM
- neutralization of SARS-CoV-2 (assay not stated) [5]: < 150 ng/mL

B8: Nb21 (VHH)
VHH: QVQLVESGGGLVQAGGSLRLSCAVSGLGAHRVGWFRRAPGKEREFVAAIGANGGNTNYLDSVKGRFTISRDNAKNTIYLQMNSLKPQDTAVYYCAARDIETAEYTYWGQGTQVTVSS
- Authentic virus PRNT IC50 [3]: 0.022 nM
- Pseudo-neut IC50 Luciferase [4]: 0.0495 nM
- Pseudo-neutralization (GFP) [4]: < 0.5 nM
- IC50, SARS-CoV-2 PRNT [11]: 0.021 nM
- IC50, pseudovirus assay [5]: 0.7 ng/ml and 0.045 nM
